Measurements reported in publication doi:10.1101/2022.04.18.488656, “HNRNPH1 destabilizes the G-quadruplex structures formed by G-rich RNA sequences that regulate the alternative splicing of an oncogenic fusion transcript”.

T1: HNRNPH1 full-length (UniProt P31943 1-449)
T1 sequence: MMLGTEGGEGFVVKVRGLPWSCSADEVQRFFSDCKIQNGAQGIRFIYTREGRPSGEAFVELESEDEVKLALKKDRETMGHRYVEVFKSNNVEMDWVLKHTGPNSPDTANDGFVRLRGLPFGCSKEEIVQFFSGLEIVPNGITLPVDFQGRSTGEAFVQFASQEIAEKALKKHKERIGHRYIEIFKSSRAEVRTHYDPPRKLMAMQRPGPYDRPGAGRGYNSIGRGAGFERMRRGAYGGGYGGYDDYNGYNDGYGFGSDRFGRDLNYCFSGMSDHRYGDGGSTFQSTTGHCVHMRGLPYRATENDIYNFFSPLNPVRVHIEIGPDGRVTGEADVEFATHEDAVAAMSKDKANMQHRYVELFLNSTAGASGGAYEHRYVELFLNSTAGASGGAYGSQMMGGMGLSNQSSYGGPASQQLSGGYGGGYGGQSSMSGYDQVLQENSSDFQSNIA

T2: HNRNPF (UniProt P52597 1-415)
T2 sequence: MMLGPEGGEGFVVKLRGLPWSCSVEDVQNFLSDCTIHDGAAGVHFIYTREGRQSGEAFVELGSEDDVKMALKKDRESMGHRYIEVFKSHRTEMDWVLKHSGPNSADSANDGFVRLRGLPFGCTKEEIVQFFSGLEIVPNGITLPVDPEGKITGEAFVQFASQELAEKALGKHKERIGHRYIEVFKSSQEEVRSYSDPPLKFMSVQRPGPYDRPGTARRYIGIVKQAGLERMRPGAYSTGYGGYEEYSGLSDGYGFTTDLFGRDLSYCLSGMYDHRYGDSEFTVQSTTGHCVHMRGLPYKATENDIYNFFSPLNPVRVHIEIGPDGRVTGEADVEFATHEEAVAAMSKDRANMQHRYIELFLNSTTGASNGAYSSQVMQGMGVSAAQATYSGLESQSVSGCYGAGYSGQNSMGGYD

T3: HNRNPH1 qRRM1-2 (UniProt P31943 11-188)
T3 sequence: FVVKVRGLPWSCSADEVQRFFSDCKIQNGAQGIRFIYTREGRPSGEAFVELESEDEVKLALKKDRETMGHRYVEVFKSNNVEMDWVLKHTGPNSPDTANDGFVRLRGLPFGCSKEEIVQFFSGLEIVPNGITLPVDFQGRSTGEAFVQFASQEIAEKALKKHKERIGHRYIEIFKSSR


Assays:
HNRNPH1 full-length = molecular target: T1, HNRNPH1 full-length; assay: BLI; 150 mM KCl (G4); BLI: 10 mM Tris-HCl pH 7.4, 150 mM KCl, 0.005% P-20, 1 mM EDTA; EMSA: 10 mM Tris-HCl pH 7.4, 1 mM EDTA, 150 mM KCl, room temp, 3 nM RNA; FRET: same Tris/EDTA with 25 mM KCl, room temp; conditions: protein: recombinant, tags: FLAG, label: 5'-biotin
HNRNPF = molecular target: T2, HNRNPF; assay: BLI; 150 mM KCl; BLI: 10 mM Tris-HCl pH 7.4, 150 mM KCl, 0.005% P-20, 1 mM EDTA; EMSA: 10 mM Tris-HCl pH 7.4, 1 mM EDTA, 150 mM KCl, room temp, 3 nM RNA; FRET: same Tris/EDTA with 25 mM KCl, room temp; conditions: protein: recombinant; label: 5'-biotin; parallel two-tier G4, intramolecular
HNRNPH1 qRRM1-2 = molecular target: T3, HNRNPH1 qRRM1-2; assay: as above; conditions: protein: recombinant; label: 5'-biotin; parallel two-tier G4, intramolecular
[1] = parallel two-tier G4, intramolecular

Binder	Kd (HNRNPH1 full-length; parallel two-tier G4) [nM]	Kd (HNRNPH1 full-length; [1]) [nM]	Kd (HNRNPF) [nM]	Kd (HNRNPH1 qRRM1-2) [nM]
GGUGGGCGGGGAGGAGGACGCGGUGGAAU (structured_RNA) [rG2]	3.1 ± 0.7			
GGGCGGGGAGGAGGACGCGGUGGAAUGGG (structured_RNA) [rG3]		1.39 ± 0.54	0.35	4 ± 0.7
ACCGGGGCAGGGGAAGAGGGGGAUU (structured_RNA) [rG1]		1.08 ± 0.53	0.34	6 ± 0.8
